From patent publication US9150659B2, “Anti-tace antibody molecules and their uses” (priority 2011, dated 2015)

T1: Recombinant human ADAM10 ectodomain (Homo sapiens, UniProt O14672)
T1 construct: Recombinant human ADAM10 ectodomain
T1 sequence (O14672 214-672 limits assumed): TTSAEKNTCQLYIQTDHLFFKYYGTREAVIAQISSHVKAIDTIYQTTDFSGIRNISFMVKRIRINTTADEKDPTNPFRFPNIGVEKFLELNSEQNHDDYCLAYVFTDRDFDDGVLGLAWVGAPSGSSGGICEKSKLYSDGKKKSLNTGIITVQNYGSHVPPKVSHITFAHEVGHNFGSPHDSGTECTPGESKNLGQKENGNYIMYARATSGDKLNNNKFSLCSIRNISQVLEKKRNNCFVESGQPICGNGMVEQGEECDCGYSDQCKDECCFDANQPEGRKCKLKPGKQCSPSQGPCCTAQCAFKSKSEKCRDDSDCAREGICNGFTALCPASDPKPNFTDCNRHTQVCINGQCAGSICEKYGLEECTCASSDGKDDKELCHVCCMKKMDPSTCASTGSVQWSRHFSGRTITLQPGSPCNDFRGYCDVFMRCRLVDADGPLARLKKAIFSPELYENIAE

B1: D1(A12) scFv: scFv format; VH SEQ ID NO: 7, VL SEQ ID NO: 9 (antibody, listed as Homo sapiens, V domains shown)
VH: EVQLVESGGGLVRPGGSLRLSCAASGFTFSSYAMSWVRQAPGKGLEWVSAISGSGGSTYYADSVKGRFTISRDNTKNSLYLQMTSLRADDTAFYYCVKDFGPGYGTGWFDYWGPGTLVTVSA
VL: SDIQMTQSPSSLSASVGDRVTITCRASQSISSYLNWYQQKPGKAPKLLIHDASSLQSGVPSRFSGSGSGTDFTLTISSLQPEDFATYYCQQSFSIPLTFGGGTKMDIKR
modifications: scFv linker

Experiments:
[1] = molecular target: T1, Recombinant human ADAM10 ectodomain; assay: ADAM10 quench fluorescent peptide cleavage assay; type: biochemical; details: titrated concentrations
[2] = molecular target: T2, PDI treated TACE ectodomain (Homo sapiens, UniProt P78536); assay: Antibody binding after PDI treatment of the TACE ectodomain
T2 construct: Mature recombinant TACE ectodomain (Arg^215-Arg^651) was expressed in baculovirus infected sf9 cells; made in house; host or cells: baculovirus infected Sf9 cells
T2 sequence (P78536 215-651): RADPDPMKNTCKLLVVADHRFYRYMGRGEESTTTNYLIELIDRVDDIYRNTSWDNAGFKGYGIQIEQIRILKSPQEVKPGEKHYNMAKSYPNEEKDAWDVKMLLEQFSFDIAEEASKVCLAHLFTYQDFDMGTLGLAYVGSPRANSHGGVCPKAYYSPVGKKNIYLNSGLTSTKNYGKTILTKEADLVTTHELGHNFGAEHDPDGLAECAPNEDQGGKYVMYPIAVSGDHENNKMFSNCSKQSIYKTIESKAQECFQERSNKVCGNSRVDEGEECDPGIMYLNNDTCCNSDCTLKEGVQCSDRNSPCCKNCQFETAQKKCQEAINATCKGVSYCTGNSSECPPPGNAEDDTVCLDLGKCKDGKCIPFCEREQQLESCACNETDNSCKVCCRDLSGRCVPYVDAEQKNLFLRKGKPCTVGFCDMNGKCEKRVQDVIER

[3] = molecular target: T3, Recombinant human TACE ectodomain (Arg215-Arg651) (Homo sapiens, UniProt P78536); assay: Quenched fluorescent peptide cleavage assay, TACE ectodomain; type: biochemical; details: 1 nM TACE ectodomain; read-out: IC50, TACE ectodomain proteolysis, quenched fluorescent peptide
T3 construct: Mature recombinant TACE ectodomain (Arg^215-Arg^651) was expressed in baculovirus infected sf9 cells; made in house; host or cells: baculovirus infected Sf9 cells
T3 sequence (P78536 215-651): as above
Method: (§1) Recombinant human TACE catalytic domain and TACE ectodomain were diluted to 1 nM in 50 mM Tris-HCl, 10 mM CaCl2, 0.05% Brij35, 1% DMSO, pH 7.4 and pre-incubated with titrated concentrations of inhibitor for 4-hours at room temperature. Following incubation, each reaction was separated into 200 μL technical quadruplets in a 96-well black Microwell plate (Nunc 237105), and the fluorogenic substrate methoxycoumarinyl acetyl-Lys-Pro-Leu-Gly-Leu-dinitrophenyl diaminopropionyl-Ala-Arg-NH2 (Peptides International SMO-3670-PI) was added to each well (final concentration 1 μM). Every 30 seconds fluorescence was excited at 320 nm and emission recorded at 405 nm in a Tecan Infinite-200 (at 37° C. for 2000 seconds). Individual readings were normalised against a substrate only control and compiled to produce a mean trend for each variable. A linear regression slope for each reaction was calculated in GraphPad Prism (ΔFU sec^−1) and proteolytic activity was expressed as the slope percentage of an untreated control (% ΔFU sec^−1). Final results represent mean values from three separate experiments.
(§2) Purified recombinant scFvs were subjected to an 8-point fluorometric titration ([TACE]=1 nM) (as above) and a 16-point titration ELISA ([TACE]-500 nM). […] Change in Gibb's Free Energy (ΔΔG) was calculated using the equation: ΔΔG=+RT1n(Ala/WT).

[4] = molecular target: T4, Recombinant human TACE catalytic domain (Homo sapiens, UniProt P78536); assay: Quenched fluorescent peptide cleavage assay, isolated TACE catalytic domain; type: biochemical; details: 1 nM TACE catalytic domain; read-out: IC50 Cat:WT, isolated catalytic domain, quenched fluorescent peptide
T4 construct: The mature catalytic domain of TACE (Arg^215-Val^477-GlySer-His^6) was prepared using an identical baculovirus system; GlySer-His6 (C); made in house; host or cells: baculovirus system (Sf9)
T4 sequence (P78536 215-477): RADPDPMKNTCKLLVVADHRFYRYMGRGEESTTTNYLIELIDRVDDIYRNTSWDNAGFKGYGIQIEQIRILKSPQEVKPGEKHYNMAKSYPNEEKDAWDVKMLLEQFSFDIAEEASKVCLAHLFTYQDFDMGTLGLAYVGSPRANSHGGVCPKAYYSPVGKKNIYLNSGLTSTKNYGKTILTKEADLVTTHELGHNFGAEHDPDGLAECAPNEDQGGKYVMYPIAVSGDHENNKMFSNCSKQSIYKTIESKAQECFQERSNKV
Method: as §1, §2

Row | Molecule | effect on ADAM10 proteolytic activity [1] | immunoreactivity following PDI treatment of the TACE ectodomain [2] | IC50 [3] | IC50 [4]
1 | CC(C)(C)[C@H](NC(=O)[C@H](CCCc1ccc(Cl)cc1)CC(=O)NO)C(N)=O [CT1746, reference compound] | rapidly inhibits |  |  | 
2 | B1 |  | largely resistant to PDI modulation | 0.89 nM | 2.3 nM
